Assay results as given in the supplement of paper PMC9732359.
± gives the uncertainty stated by the source.

Assay: protein stability index of a GFP-peptide fusion (yeast GPS) (PSI 1-4); higher = more stable; sorted into four equal gates, so the index is relative within each strain
Summary of the method: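 Each library plasmid carries Cherry plus GFP with a tiled 17-residue yeast protein peptide fused downstream, and the pooled library was carried in yeast. Mid-log cultures in leucine-free medium were sorted into four equal gates by GFP/Cherry ratio. Reads from Illumina sequencing of PCR-amplified plasmids from each gate were assigned to strains by barcodes. Per peptide, the protein stability index was computed as the summed products of gate read frequency and gate number.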

Sequence | protein stability index (doa10∆) | protein stability index (pdr5∆) | protein stability index (san1∆) | protein stability index (ubr1∆)
FGVTKARWPAKSVKFVQ [RPL17A] | 2.63 ± 0.088 | 2.51 ± 0.077 | 2.55 ± 0.069 | 3.05 ± 0.059
FEGCYYTPEESAWIWPM [RPC25] |  | 2.3 ± 0.21 | 2.55 ± 0.2 | 2.52 ± 0.13
RVADEDANLNDLPETGF [IRR1] | 3 ± 0.095 | 3.22 ± 0.11 | 3.44 ± 0.078 | 3.13 ± 0.089
GVATKDKFFTLSAENIE [SCL1] |  |  |  | 3.28 ± 0.25
NPNSTAITADLGSSEAE [YGL172W/NUP49] | 2.56 ± 0.24 | 2.4 ± 0.14 | 2.86 ± 0.22 | 2.76 ± 0.12
LRIVTHLAICLDIINPG [YDL116W/NUP84] | 1.61 ± 0.08 | 1.38 ± 0.083 | 1.57 ± 0.095 | 1.82 ± 0.067
VVNDLVGEKLVVVVLEE [SIR3] | 3.42 ± 0.076 | 3.18 ± 0.067 | 3.42 ± 0.042 | 3.53 ± 0.081
TVEPVYQMHIKTSKDIA [FAS1] | 1.29 ± 0.044 | 1.33 ± 0.063 | 1.31 ± 0.081 | 1.35 ± 0.065
IEKGSTFGINLIYVNPF [FAS1] | 2.58 ± 0.06 | 2.61 ± 0.068 | 2.71 ± 0.052 | 2.78 ± 0.04
TGKFVLQGQMEKIMILL [CSN12] | 1.61 ± 0.1 | 2.2 ± 0.12 | 1.31 ± 0.2 | 1.51 ± 0.12
AVVVRGRYAGKKVVIVK [RPL27A] | 3.13 ± 0.11 | 3.38 ± 0.067 | 3.03 ± 0.074 | 2.81 ± 0.082
TVINEQQREAVRQLYKG [RPL35A] | 3.44 ± 0.094 | 3.43 ± 0.14 | 3.13 ± 0.12 | 3.31 ± 0.079
FDIYNRDRKLITDKGTV [YJL039C/NUP192] | 3.18 ± 0.13 | 2.53 ± 0.093 | 2.86 ± 0.11 | 2.96 ± 0.083
TSKTVSNQFKRSLATAV [COR1] | 2.47 ± 0.11 | 2.32 ± 0.075 | 2.34 ± 0.092 | 1.8 ± 0.056
FLKERLMEASDAFRVHI [RPB2] | 1.66 ± 0.073 | 1.7 ± 0.12 | 2 ± 0.15 | 1.74 ± 0.1
FLERKCVHMVYEYAEHD [SSN3] | 1.71 ± 0.061 | 1.67 ± 0.071 | 1.69 ± 0.09 | 1.83 ± 0.046
RHSGKVYPITLSTDATS [UBP6] | 1.98 ± 0.072 | 2.76 ± 0.066 | 2.74 ± 0.057 | 2.02 ± 0.045
KRAFTKKVASANATAAE [RPL16A] | 2.73 ± 0.068 | 2.69 ± 0.06 | 2.82 ± 0.04 | 2.55 ± 0.037
EEEDSILSLEQSSRVVS [YCS4] | 3.11 ± 0.12 | 3.24 ± 0.08 | 3.19 ± 0.062 | 3.06 ± 0.086
CISLGSTKLSRPFDSFG [ITC1] | 3.06 ± 0.067 | 2.93 ± 0.061 | 3.03 ± 0.048 | 3.01 ± 0.08
PVNSADGKEDVEKGTPL [SME1] | 3.45 ± 0.12 | 3.25 ± 0.21 | 3.52 ± 0.058 | 

Sequence | protein stability index (doa10∆) | protein stability index (pdr5∆) | protein stability index (san1∆) | protein stability index (ubr1∆)
TVAVLPPNWKYESATAS [RPS13] | 1.63 ± 0.036 | 2.06 ± 0.037 | 2.07 ± 0.055 | 1.97 ± 0.028
RLKEKGSRVLIFSQMSR [ISW2] | 1.67 ± 0.056 | 2.19 ± 0.066 | 1.53 ± 0.11 | 2.06 ± 0.057
NLQIRQLFNWCLMRSLH [DSN1] | 1.26 ± 0.092 | 1.19 ± 0.061 | 1.04 ± 0.17 | 1.12 ± 0.13
IKTVVLVPQLGHVGSVQ [PRP8] | 2.42 ± 0.056 | 2.47 ± 0.049 | 2.28 ± 0.063 | 2.35 ± 0.041
RYIWRSLKDLSSLRNQE [RPN3] | 2.77 ± 0.14 |  | 2.85 ± 0.094 | 
YEYAEHDLLQIIHFHSH [SSN3] | 2.31 ± 0.062 | 2.59 ± 0.054 | 2.5 ± 0.045 | 2.63 ± 0.04
VTRTHGNSGVVRATFRN [RPL33A] | 2.6 ± 0.075 | 2.82 ± 0.088 | 2.56 ± 0.092 | 2.86 ± 0.073
YYAKKRAFTKKVSSASA [RPL16B] | 1.82 ± 0.075 | 1.71 ± 0.048 | 1.95 ± 0.068 | 1.41 ± 0.055
QPQQQLGDMENNLEKYP [RTT102] | 3.54 ± 0.092 | 3.15 ± 0.12 | 3.62 ± 0.077 | 3.33 ± 0.1
VITALKEPPRDRKKDKN [RPL12A] | 2.48 ± 0.08 | 2.61 ± 0.12 | 2.37 ± 0.1 | 1.85 ± 0.063
ETKDIRKQIQLLKKIIF [SRB4] | 2.34 ± 0.052 | 2.43 ± 0.044 | 2.42 ± 0.045 | 2.39 ± 0.039
TEDILKEISTRVFNAKD [YCS4] | 3.11 ± 0.13 | 3.17 ± 0.095 | 3.25 ± 0.095 | 3.29 ± 0.092
TGPFKVNGVPLRRVNAR [RPL6B] | 2.26 ± 0.13 | 2.49 ± 0.099 | 2.56 ± 0.095 | 2.72 ± 0.061
DTTANNGKVQYFLRRQY [YJL039C/NUP192] | 2.71 ± 0.095 | 2.65 ± 0.14 | 2.83 ± 0.15 | 2.98 ± 0.091
NQINSFWSLHSSTYYNL [NUT1] | 2.34 ± 0.064 | 1.75 ± 0.049 | 1.72 ± 0.073 | 1.57 ± 0.036
GISDDENDEEDIYMHDV [RRP4] | 3.33 ± 0.13 | 3.31 ± 0.14 | 2.99 ± 0.12 | 3.46 ± 0.12
INKIVEILTNQQRGITY [YGR119C/NUP57] | 1.64 ± 0.073 | 1.99 ± 0.12 | 2.12 ± 0.13 | 2.09 ± 0.065
PTQTVAELDLMSGILHC [RPN6] | 2.8 ± 0.06 | 3.07 ± 0.054 | 2.95 ± 0.047 | 3.1 ± 0.051
VKKAVTVHSKSRTRAHA [RPL19A] | 3.2 ± 0.1 | 3.2 ± 0.13 | 2.67 ± 0.12 | 3.16 ± 0.1
NLQGDLQAIQEKLNKTD [ITC1] |  | 3.33 ± 0.21 | 3.33 ± 0.17 | 3.2 ± 0.16
TIVTGGGSGNGDDVVND [RPP1] | 3.14 ± 0.26 | 3.6 ± 0.17 | 3.22 ± 0.12 | 3.54 ± 0.21

Sequence | protein stability index (doa10∆) | protein stability index (pdr5∆) | protein stability index (san1∆) | protein stability index (ubr1∆)
LEKIHSIEVQSLPEFFT [SWI3] | 2.69 ± 0.074 | 2.53 ± 0.073 | 2.43 ± 0.12 | 2.52 ± 0.069
VVSAVGEARNDIENKEE [YAR002W/NUP60] | 2.92 ± 0.056 | 3.17 ± 0.066 | 3.08 ± 0.041 | 2.9 ± 0.076
QINPTRETNDDIWRVAG [SNF2] | 2.6 ± 0.064 | 2.26 ± 0.066 | 2.25 ± 0.069 | 2.14 ± 0.052
KYIVKASSGPRYIVGVR [RPT4] | 1.87 ± 0.096 | 2.66 ± 0.13 | 3.4 ± 0.089 | 1.89 ± 0.075
SDKPSLPSAVDGENDKK [YLR335W/NUP2] | 3.4 ± 0.08 | 3.42 ± 0.086 | 3.37 ± 0.071 | 3.35 ± 0.11
SKDELREKLAEVYKAEK [RPS24A] | 3.51 ± 0.16 | 3.48 ± 0.15 | 3.59 ± 0.08 | 3.56 ± 0.16
NDELVELLANKCPLLVE [GRR1] | 2.08 ± 0.058 | 2.13 ± 0.04 | 2.1 ± 0.078 | 1.96 ± 0.035
EISISFDVNNIDMHLIY [YDL116W/NUP84] | 1.94 ± 0.082 | 2.43 ± 0.093 | 2.02 ± 0.089 | 2.25 ± 0.057
QSEHLEAVVDQDVQRTC [FAS1] | 3.47 ± 0.25 | 3.36 ± 0.14 | 3.49 ± 0.094 | 3.38 ± 0.095
NVLFLRLFNNVKIHSQE [SRP72] | 2.18 ± 0.049 | 2.06 ± 0.04 | 1.66 ± 0.061 | 2.08 ± 0.036
EGLSAQIAFDLVSSASQ [RPN2] | 2.6 ± 0.068 | 3.05 ± 0.075 | 2.67 ± 0.1 | 2.62 ± 0.039
FGAKPEEQKSSDTSKPA [YJL041W/NSP1] | 3.23 ± 0.083 | 2.91 ± 0.084 | 3.32 ± 0.088 | 3.11 ± 0.09
AQNVPMNIIQQQQQQNT [GAL11] | 2.48 ± 0.043 | 2.6 ± 0.042 | 2.45 ± 0.069 | 2.46 ± 0.029
RNVGKTLVNKSTGLKSA [RPS1A] | 2.81 ± 0.098 | 2.72 ± 0.097 | 2.59 ± 0.12 | 2.96 ± 0.086
DRTLPHFSKDDYSPESK [RPO21] | 3.07 ± 0.1 | 3.22 ± 0.074 | 2.85 ± 0.099 | 3.42 ± 0.093
IVERETNWIIYPLWVMA [CSN12] | 2.81 ± 0.19 | 3.42 ± 0.24 | 2.76 ± 0.24 | 
VLLVEKYGAEYDLVDNK [NAS6] | 1.9 ± 0.22 |  | 3 ± 0.22 | 3 ± 0.19
KDRYINGDKKVDIYSLP [YMR129W/POM152] | 3.15 ± 0.091 | 2.77 ± 0.094 | 3.03 ± 0.042 | 3.23 ± 0.069
KVFDCGDNIVMSANGFA [PRE7] | 2.88 ± 0.24 | 2.92 ± 0.12 | 2.88 ± 0.11 | 2.97 ± 0.15
PTSDEPVPESAGKADTS [SRB4] | 2.86 ± 0.085 | 3.07 ± 0.092 | 2.88 ± 0.065 | 3.07 ± 0.045
